Common to all, as to type: binding
Assay [1] concerns the target A2.1 HLA molecules (Homo sapiens, UniProt P04439, D140Y/D185E/D98H/E176V/E277Q/G131W/G231S/I119V/I121R/I166T/I218V/L300P/L318F/N151K/N90K/P208A/P217A/Q86G/Q94H/R138H/R169H/T345S). Also noted: A*0201 / A2.1 Binding / A2 Bind. / A2 / A2.1 (binding capacity): scale not given here.
The target of assay [2] is HLA-A1 (A*0101) (Homo sapiens, UniProt P04439, A114D/A174V/A182V/D101N/D185E/E176A/E190D/L180R/Q94H/R68K/S129P/T187R/V100A/V91M/W191G). Nature of the assay: biochemical.
Assay [3] deals with HLA-A11 (A*1101) (Homo sapiens, UniProt P04439, A114D/D185E/E176A/F33Y/L180Q/S129P/T187R). Description: biochemical.
The target of assay [4] is HLA-A3.2 (A*0301) (Homo sapiens, UniProt P04439). Nature of the assay: biochemical.
For assay [5], the target named is A*0203 (Homo sapiens, UniProt P04439, A173T/D140Y/D185E/D98H/E277Q/G131W/G231S/I119V/I121R/I166T/I218V/L180W/L300P/L318F/N151K/N90K/P208A/P217A/Q86G/Q94H/R138H/R169H/T345S). Nature of the assay: biochemical.
Assay [6] has as its target HLA-A*0201 (HLA-A2.1) (Homo sapiens, UniProt P04439, D140Y/D185E/D98H/E176V/E277Q/G131W/G231S/I119V/I121R/I166T/I218V/L300P/L318F/N151K/N90K/P208A/P217A/Q86G/Q94H/R138H/R169H/T345S). Nature of the assay: biochemical.
The target of assay [7] is A*0206 (Homo sapiens, UniProt P04439, D140Y/D185E/D98H/E176V/E277Q/F33Y/G131W/G231S/I119V/I121R/I166T/I218V/L300P/L318F/N151K/N90K/P208A/P217A/Q86G/Q94H/R138H/R169H/T345S). Description: biochemical.
Assay [8] has as its target A*0202 (Homo sapiens, UniProt P04439, D140Y/D185E/D98H/E176V/E277Q/G131W/G231S/I119L/I121R/I166T/I218V/L180W/L300P/L318F/N151K/N90K/P208A/P217A/Q67R/Q86G/Q94H/R138H/R169H/T345S). Nature of the assay: biochemical.
For assay [9], the target named is A*6802 (Homo sapiens, UniProt P04439, A269V/D140Y/D185E/E176V/E277Q/E87N/F33Y/G231S/I121R/I166T/I218V/L180W/L300P/L318F/N151K/P208A/P217A/Q86R/R138H/R169H/S129P/T345S/V36M). Nature of the assay: biochemical.
Assay [10] concerns the target A*6801 (Homo sapiens, UniProt P04439, A269V/D185E/E176V/E277Q/E87N/F33Y/G231S/I121M/I166T/I218V/L180W/L300P/L318F/N151K/P208A/P217A/Q86R/R169H/T345S). Nature of the assay: biochemical.
In assay [11] the target is A*3301 (Homo sapiens, UniProt P04439, A270S/D185E/E176V/E277Q/E87N/F33T/G231S/H175R/I121M/I218V/I322F/K168Q/K210R/L300P/L318F/M331R/P217A/Q86R/Q94H/R138Q/T323A/T345S/T97I/V358M/Y195H). Nature of the assay: biochemical.
Assay [12] has as its target A31 (A*3101) (Homo sapiens, UniProt P04439, A270S/D185E/E176V/E277Q/F33T/G231S/G80R/H175R/I121M/I218V/I322F/K168Q/L300P/L318F/M331R/P217A/Q94H/R138Q/T323A/T345S/T97I/V358M). Nature of the assay: biochemical.

No end group written: not given here. Some results are limits rather than exact numbers.

These results are taken from patent publication US9340577B2, “HLA binding motifs and peptides and their uses” (priority 1992, dated 2016).

For TIIVHLNESV, the “A2 Bind.” value in assay [1] stood at 0.0350. The same compound returned an A1 in [2] of 0.0350.
Take LLQYWSQEL: the “A2 Bind.” value in assay [1] is 0.0265. In [2], this compound gave an A1 of 0.0265.
Usually IC50 stands for the concentration at which inhibition is half-maximal. YSDIRELRHY [Peptide 86.0055] displayed an IC50 in assay [2] of 9.9 nM.
In the case of SLLTFMIAA, in assay [1], the “A2 Bind.” value came out at 0.5300. Besides, the A1 in [2] was determined as 0.5300.
LLVFACSAV: the “A2 Bind.” value in assay [1] amounted to 0.0107. The A1 in assay [2] is recorded as 0.0107.
TVWGIKQLQA: the “A2 Bind.” value in assay [1] is given as 0.0150. In addition, the A1 in assay [2] stood at 0.0150.
For WALTVVWLL, in assay [2], the A1 came out at 0.0415.
As to ALLYKLDIV, in [1], the “A2 Bind.” value is 0.0362. In assay [2], this compound displayed an A1 of 0.0362.
For the compound RMYGVLPWI, the “A2 Bind.” value in assay [1] turned out to be 0.1650. The compound further showed an A1 in assay [2] of 0.1650.
In the case of ALTVVWLLV, in [1], the “A2 Bind.” value was determined as 0.0390. The same compound yielded an A1 in [2] of 0.0390.
Turning to LLYKLDIVSI, in [1], the “A2 Bind.” value was 0.0245. Also, in [2], the A1 was 0.0245.
On to LLIAARIVEL, for which, in assay [1], the “A2 Bind.” value was 0.1550. This compound yielded an A1 in assay [2] of 0.1550.
Turning to TLQCKIKQII, the “A2 Bind.” value in assay [1] is on record as 0.0200. The compound also showed an A1 in assay [2] of 0.0200.
Turning to WLWYIKIFI, in assay [1], the “A2 Bind.” value amounted to 0.0355. This compound also came in with an A1 in [2] of 0.0355.
Consider YVAWKYIYY [Peptide 88.0433], for which the IC50 in assay [2] was 310 nM.
With LLNATDIAVA, the “A2 Bind.” value in assay [1] came to 0.0117. Besides, in assay [2], the A1 came out at 0.0117.
On to FIMIVGGLV, for which, in assay [1], the “A2 Bind.” value is 0.0131. In addition, the A1 in assay [2] stood at 0.0131.
MLQLTVWGI: in assay [1], the “A2 Bind.” value is 0.2450. Also, in assay [2], the A1 is given as 0.2450.
With IMIVGGLVGL, the “A2 Bind.” value in assay [1] amounted to 0.0252. This compound also yielded an A1 in [2] of 0.0252.
As for GLLECCARCLV, the “A2 Bind.” value in [1] is 0.0515. The A1 in assay [2] is listed as 0.0515.
For RVIEVLQRA, the “A2 Bind.” value in assay [1] stood at 0.1963. Further, the A1 in assay [2] was determined as 0.1963.
Turning to AVLSIVNRV, the “A2 Bind.” value in assay [1] is recorded as 0.0132. For the same compound, the A1 in assay [2] stood at 0.0132.
For FLYGALLLA, the “A2 Bind.” value in assay [1] worked out at 1.9000. Also, the A1 in [2] turned out to be 1.9000.
As for HMLQLTVWGI, the “A2 Bind.” value in assay [1] was determined as 0.0677. In assay [2], the A1 is 0.0677.
Turning to IISLWDQSL, the “A2 Bind.” value in assay [1] is recorded as 0.0179. In addition, in assay [2], the A1 came out at 0.0179.
For FLGAAGSTM, the “A2 Bind.” value in assay [1] turned out to be 0.0190. Further, in assay [2], the A1 is recorded as 0.0190.
Regarding FLYGALLL, the “A2 Bind.” value in assay [1] is given as 0.0345. In addition, the A1 in [2] is recorded as 0.0345.
In the case of ALFLGFLGA, the “A2 Bind.” value in assay [1] amounted to 0.0945. For the same compound, the A1 in assay [2] was determined as 0.0945.
Regarding ALFLGFLGAA, the “A2 Bind.” value in [1] came to 0.4950. Besides, in assay [2], the A1 was 0.4950.
Regarding LLNATDIAV, in assay [1], the “A2 Bind.” value came out at 0.0607. The A1 in [2] is 0.0607.
In the case of FLAIIWVDL, the “A2 Bind.” value in [1] came out at 0.0233. This compound also came in with an A1 in [2] of 0.0233.
Turning to SLLNATDIAV, in [1], the “A2 Bind.” value turned out to be 0.1050. Also, the A1 in [2] stood at 0.1050.
Regarding GLVGLRIVFA, the “A2 Bind.” value in assay [1] stood at 0.0195. In [2], this compound yielded an A1 of 0.0195.
For SLCADARMYGV, the “A2 Bind.” value in assay [1] is 0.0140. Also, the A1 in assay [2] turned out to be 0.0140.
As to LLGRRGWEV, the “A2 Bind.” value in assay [1] was 0.0142. The same compound gave an A1 in [2] of 0.0142.
The compound RFEDPTRRPY [Peptide 78.0005] registered a half-inhibitory concentration (IC50) in assay [2] of 19200 nM.
In the case of VADKALKFY [Peptide E6-69], in assay [3], the “binding class for HLA-A11.2” value is recorded as “weak affinity” and the “binding to HLA-A11.2 (in words)” value is on record as “bound”. Further, in assay [2], the “binding to HLA-A1 (in words)” value is listed as “bound”. Also, the “binding to HLA-A3.2 (in words)” value in [4] (HPV 16 E6/E7 9-mers) is listed as “bound”.
In the case of MTSNPAIPV [Peptide 1539.03], the IC50 in [5] is 68 nM; in [6], 1470 nM; in assay [7], 911 nM; in [8], 951 nM; in [9] it was 2 nM.
Turning to TLTTITVYA [Peptide 9013.0069], the IC50 in assay [5] amounted to 2.6 nM; in assay [6], 14 nM; in assay [7], 666 nM; in assay [8], 0.75 nM; in assay [9], 5 nM.
Take RMLQQLLFI [Peptide 1525.12]: the IC50 in [5] came out at 12 nM; in assay [6] it was 15 nM; in assay [7], 16 nM; in [8], 128 nM; in assay [9], 18700 nM.
For the compound FMIAATYNFAV, the “A2 Bind.” value in assay [1] amounted to 0.4950. The A1 in [2] was 0.4950.
Consider RTTVKTITVSV [Peptide 9013.0318], for which the IC50 was determined as 457 nM in [5]; 1590 nM in [6]; 137 nM in [7]; 866 nM in assay [8]; 1.4 nM in [9].
Regarding CVSHRGLYY [Peptide 88.0401], the IC50 in [10] is more than 20 µM; in [11], more than 20 µM; in [2], 108 nM; in assay [12] it was more than 20 µM; in [4], 27 nM.
With IAATYNFAV, the “A2 Bind.” value in assay [1] is 0.0540. The A1 in assay [2] is given as 0.0540.
As for `CSCC[C@H](NC(=O)[C@@H](N)CCCNC(=N)N)C(=O)N1CCC[C@H]1C(=O)N[C@@H](CCC(=O)O)C(=O)N[C@@H](C)C(=O)N[C@@H](C)C(=O)N1CCC[C@H]1C(=O)N1CCC[C@H]1C(=O)N[C@H](C(=O)N[C@H](C(=O)O)C(C)C)C(C)C` [Peptide 1317.29], the half-maximal inhibitory concentration (IC50) was 6.3 nM in [5]; 55 nM in assay [6]; 259 nM in assay [7]; 62 nM in assay [8]; more than 20000 nM in assay [9].
